From article PMC11128299 (Biophysics and Physicobiology, 2023) come the findings set out here.

Data set [1] concerns the molecule itself. In words: crystal structure.
Data set [2] deals with the molecule itself. Briefly: crystal structure. This is another data set of the same source.

Read-outs that look alike come from different tables or passages of the source.

B1: KaiC-CV (KaiC with S431C and T432V substitutions) (enzyme)
chain: MTSAEMTSPNNNSEHQAIAKMRTMIEGFDDISHGGLPIGRSTLVSGTSGTGKTLFSIQFLYNGIIEFDEPGVFVTFEETPQDIIKNARSFGWDLAKLVDEGKLFILDASPDPEGQEVVGGFDLSALIERINYAIQKYRARRVSIDSVTSVFQQYDASSVVRRELFRLVARLKQIGATTVMTTERIEEYGPIARYGVEEFVSDNVVILRNVLEGERRRRTLEILKLRGTSHMKGEYPFTITDHGINIFPLGAMRLTQRSSNVRVSSGVVRLDEMCGGGFFKDSIILATGATGTGKTLLVSRFVENACANKERAILFAYEESRAQLLRNAYSWGMDFEEMERQNLLKIVCAYPESAGLEDHLQIIKSEINDFKPARIAIDSLSALARGVSNNAFRQFVIGVTGYAKQEEITGLFTNTSDQFMGAHSITDSHICVITDTIILLQYVEIRGEMSRAINVFKMRGSWHDKAIREFMISDKGPDIKDSFRNFERIISGSPTRITVDEKSELSRIVRGVQEKGPES
Regarding B1, in “crystal structure [1]”, the “stoichiometry N” value worked out at 6.

B2: KaiC-TV (KaiC with threonine at position 431 and valine at position 432) (enzyme)
chain: MTSAEMTSPNNNSEHQAIAKMRTMIEGFDDISHGGLPIGRSTLVSGTSGTGKTLFSIQFLYNGIIEFDEPGVFVTFEETPQDIIKNARSFGWDLAKLVDEGKLFILDASPDPEGQEVVGGFDLSALIERINYAIQKYRARRVSIDSVTSVFQQYDASSVVRRELFRLVARLKQIGATTVMTTERIEEYGPIARYGVEEFVSDNVVILRNVLEGERRRRTLEILKLRGTSHMKGEYPFTITDHGINIFPLGAMRLTQRSSNVRVSSGVVRLDEMCGGGFFKDSIILATGATGTGKTLLVSRFVENACANKERAILFAYEESRAQLLRNAYSWGMDFEEMERQNLLKIVCAYPESAGLEDHLQIIKSEINDFKPARIAIDSLSALARGVSNNAFRQFVIGVTGYAKQEEITGLFTNTSDQFMGAHSITDSHITVITDTIILLQYVEIRGEMSRAINVFKMRGSWHDKAIREFMISDKGPDIKDSFRNFERIISGSPTRITVDEKSELSRIVRGVQEKGPES
On to B2, for which the “stoichiometry N” value in the data set “crystal structure [2]” is 6.

The term stoichiometry N denotes a count of units in the complex or per binding partner.
